In article PMC2613638 (The Journal of Biological Chemistry, 2009):
“And” between values parts separate entries of the source, which are not always exact repeats. Identical values can stand only once. One block for each molecule: values may come before it.

Tests used:
human CMKLR1 = target: T1, human CMKLR1 (Homo sapiens, UniProt Q99788); test: In vitro transwell chemotaxis of CMKLR1/L1.2 transfectants; assay type: cell-based
T1 sequence (Q99788 1-373): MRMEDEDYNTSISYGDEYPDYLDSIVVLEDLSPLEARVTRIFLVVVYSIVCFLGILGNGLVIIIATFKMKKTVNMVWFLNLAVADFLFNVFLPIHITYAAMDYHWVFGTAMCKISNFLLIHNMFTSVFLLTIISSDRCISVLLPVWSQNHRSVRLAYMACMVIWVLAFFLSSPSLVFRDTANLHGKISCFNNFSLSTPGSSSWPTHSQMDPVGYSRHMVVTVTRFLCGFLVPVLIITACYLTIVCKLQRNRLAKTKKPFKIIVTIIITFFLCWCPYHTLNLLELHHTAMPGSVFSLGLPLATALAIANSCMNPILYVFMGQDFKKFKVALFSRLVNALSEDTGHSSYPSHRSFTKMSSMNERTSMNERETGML

CPB (TAFIa) = target: T2, CPB (TAFIa) (Homo sapiens, UniProt Q96IY4); conditions: CPB cleavage of comparison peptides; cited from earlier work
T2 sequence (Q96IY4 115-423): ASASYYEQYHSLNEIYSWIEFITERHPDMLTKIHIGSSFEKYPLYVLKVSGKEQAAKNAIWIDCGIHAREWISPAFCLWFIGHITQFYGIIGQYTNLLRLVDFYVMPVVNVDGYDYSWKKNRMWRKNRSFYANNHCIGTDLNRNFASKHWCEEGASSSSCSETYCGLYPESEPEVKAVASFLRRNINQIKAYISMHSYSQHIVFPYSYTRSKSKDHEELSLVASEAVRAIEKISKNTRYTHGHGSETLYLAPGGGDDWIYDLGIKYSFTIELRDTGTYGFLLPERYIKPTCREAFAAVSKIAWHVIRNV

CPN = target: T3, CPN (Homo sapiens, UniProt P15169); conditions: CPN cleavage of comparison peptides; cited from earlier work
T3 sequence (P15169 21-458): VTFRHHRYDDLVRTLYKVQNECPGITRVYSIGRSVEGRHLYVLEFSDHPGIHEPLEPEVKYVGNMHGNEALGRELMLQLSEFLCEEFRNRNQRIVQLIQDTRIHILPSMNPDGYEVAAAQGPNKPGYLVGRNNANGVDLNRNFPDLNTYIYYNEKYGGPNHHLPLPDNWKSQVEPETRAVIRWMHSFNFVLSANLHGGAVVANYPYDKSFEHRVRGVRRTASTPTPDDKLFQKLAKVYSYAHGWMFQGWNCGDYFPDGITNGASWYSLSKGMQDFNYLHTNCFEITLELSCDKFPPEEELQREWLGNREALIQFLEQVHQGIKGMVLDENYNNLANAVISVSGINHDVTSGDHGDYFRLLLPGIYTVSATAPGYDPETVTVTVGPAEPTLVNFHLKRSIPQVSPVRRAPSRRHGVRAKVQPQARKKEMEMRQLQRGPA

Staphopain B = conditions: cited from earlier work
plasmin = test: plasmin; conditions: human
Cathepsin G = conditions: cited from earlier work
Elastase = conditions: cited from earlier work
Tryptase = conditions: cited from earlier work
plasmin followed by CPN = test: plasmin; conditions: 37 °C, up to 30 min plasmin, then 30 min CPN
plasmin followed by CPB = test: plasmin; conditions: human, 37 °C, up to 30 min plasmin, then 30 min CPB
Human plasmin = test: plasmin; conditions: 37°, up to 30 min
washed platelets = test: Chemerin release from washed platelets; assay type: cell-based, human; conditions: 37 °C for 3 min; thrombin receptor-activating peptide 20 μM, collagen 10 μg/ml, ADP 10 μM; Fig. 6C

Molecule: Bradykinin (RPPGFSPFR; Bradykinin; UniProt P01042 381-389, looked up)
Km (CPB (TAFIa)): 70.6 ± 4.8 µM | kcat (CPB (TAFIa)): 19.7 ± 4.8 s⁻¹ | kcat/Km (CPB (TAFIa)): 280000 M⁻¹ s⁻¹ | Km (CPN): 303 ± 29.1 µM | kcat (CPN): 9.1 ± 0.2 s⁻¹ | kcat/Km (CPN): 30000 M⁻¹ s⁻¹

Molecule: C3a^69-77: comparison substrate peptide derived from C3a (RASHLGLAR; C3a anaphylatoxin; UniProt P01024 740-748, looked up, fragment)
Km (CPB (TAFIa)): 35.9 ± 6.6 µM | kcat (CPB (TAFIa)): 8.4 ± 0.6 s⁻¹ | kcat/Km (CPB (TAFIa)): 230000 M⁻¹ s⁻¹ | Km (CPN): 77.1 ± 11.2 µM | kcat (CPN): 57.9 ± 2.1 s⁻¹ | kcat/Km (CPN): 750000 M⁻¹ s⁻¹

Molecule: C5a^66-74: comparison substrate peptide derived from C5a (SHKDMQLGR; C5a anaphylatoxin; UniProt P01031 743-751, looked up, fragment)
Km (CPB (TAFIa)): 219 ± 16.2 µM | kcat (CPB (TAFIa)): 29.5 ± 0.7 s⁻¹ | kcat/Km (CPB (TAFIa)): 130000 M⁻¹ s⁻¹ | Km (CPN): 602 ± 74.3 µM | kcat (CPN): 9.3 ± 0.4 s⁻¹ | kcat/Km (CPN): 15000 M⁻¹ s⁻¹

Molecule: collagen
release of chemerin from washed platelets (washed platelets): induced the release of chemerin

Now from value to molecule, other results behind:

effect on PPP-induced increase of bioactivity of plasmin-cleaved prochemerin (human CMKLR1; MGTA 5 μM in PPP, treated prochemerin 0.2 nM, Fig. 4B): inhibited
Molecule: N=C(N)NCCSCC(CS)C(=O)O (racemic) [MGTA, DL-2-Mercaptomethyl-3 guanidinoethylthiopropanoic acid]

fragment found (plasmin): NH2-YFPGQFAFSK-COOH form (21-158)
Molecule: NH2-ADPELTEAQ...FAFSKALPRSPHHHHHH-COOH
fragment found (Staphopain B): ...YFPGQFAFS (21-157) | fragment found (Cathepsin G): ...YFPGQFAF (21-156) | fragment found (Elastase): ...YFPGQFAFS (21-157) and ...YFPGQFA (21-155) and ...YFPG (21-152) | fragment found (Tryptase): ...YFPGQFAFSK (21-158) and ...YFPGQFA (21-155)

fragment found (plasmin followed by CPN): 9-mer (YFPGQFAFS) | fragment found (plasmin followed by CPB): 9-mer (YFPGQFAFS) | fragment found (Human plasmin): 10-mer (YFPGQFAFSK)
Molecule: YFPGQFAFSKALPRS

chemerin activities of PPP after addition of thrombin (human CMKLR1; thrombin 5 units/ml added to PPP, 37 °C 5 min, Fig. 6B): had no effect | chemotaxis of CMKLR1-transfected cells (human CMKLR1; thrombin itself): did not induce the chemotaxis
Molecule: thrombin

chemotactic activity after sequential treatment with plasmin and CPN or CPB (human CMKLR1; plasmin 1 μM, CPN or CPB 30 nM, final chemerin concentration 0.5 nM, Fig. 3B): dramatically enhanced | chemotactic bioactivity after plasmin alone (human CMKLR1; prochemerin activation by plasmin, dose-response, Fig. 3A): increased its chemotactic bioactivity
B1: prochemerin: recombinant full-length prochemerin with carboxyl-terminal His6 tag, expressed in insect cells (protein, UniProt Q99969 21-163, looked up)
pro-form: ELTEAQRRGLQVALEEFHKHPPVQWAFQETSVESAVDTPFPAGIFVRLEFKLQQTSCRKRDWKKPECKVRPNGRKRKCLACIKLGSEDKVLGRLVHCPIETQVLREAEEHQETQCLRVQRAGEDPHSFYFPGQFAFSKALPRS
modifications: pro-form C-terminal His6 tag
CMKLR1-mediated chemotaxis after treatment with CPN and CPB alone (human CMKLR1; data not shown): did not induce CMKLR1-mediated chemotaxis
